From the supplement of paper PMC6755084

B1: F1*; the commonest letter at each place (parent)
chain: GAGACCGCAACTGAAAAGTTGTTATCACTTGTCGTAAGACACTTTGGATGGGTTGAAGTTCTGCACGTAGAAGCAAAAGGC

Variants of: B1
Experiment: fraction ligated after 30 min (ligated reads / total reads); higher = more ligase activity
Conditions: with F1*sub RNA substrate (template-directed ligation), 42 °C
Procedure, shortened: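 Templates from an oligo pool were PCR-amplified, transcribed with T7 and gel-purified to give the ribozyme variants. Ligated and unligated products were separated on gel, reverse transcribed using barcoded primers, and read on a MiSeq. A quality filter of ≥20 was applied to core bases. Fraction ligated was taken as ligated reads as a share of all reads per variant.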

Variant	fraction ligated
GAGACCGCAACTGAAAAGTTGTTATCACTTGTCGTAAGATACCTTGGATGGGTTGAAGTTCTGCACGTAGAAGCAAAAGGC [C40T T43C]	0.795
GAGACCGCAACTGAAAAGTTGTTATCACTTGTCGTAAGATACGTTGGATGGGTTGAAGTTCTGCACGTAGAAGCAAAAGGC [C40T T43G]	0.782
GAGACCGCAACTGAAAAGTTGTTATCACTTGTCGTAAGATACATTGGATGGGTTGAAGTTCTGCACGTAGAAGCAAAAGGC [C40T T43A]	0.819
GAGACCGCAACTGAAAAGTTGTTATCACTTGTCGTAAGAGATTTTGGATGGGTTGAAGTTCTGCACGTAGAAGCAAAAGGC [C40G C42T]	0.8
GAGACCGCAACTGAAAAGTTGTTATCACTTGTCGTAAGAGAGTTTGGATGGGTTGAAGTTCTGCACGTAGAAGCAAAAGGC [C40G C42G]	0.826
GAGACCGCAACTGAAAAGTTGTTATCACTTGTCGTAAGAGAATTTGGATGGGTTGAAGTTCTGCACGTAGAAGCAAAAGGC [C40G C42A]	0.82
GAGACCGCAACTGAAAAGTTGTTATCACTTGTCGTAAGATACTTTGGATGGGTTGAAGTTCTGCACGTAGAAGCAAAAGGC [C40T]	0.833
GAGACCGCAACTGAAAAGTTGTTATCACTTGTCGTAAGATACTATGGATGGGTTGAAGTTCTGCACGTAGAAGCAAAAGGC [C40T T44A]	0.831
GAGACCGCAACTGAAAAGTTGTTATCACTTGTCGTAAGATACTCTGGATGGGTTGAAGTTCTGCACGTAGAAGCAAAAGGC [C40T T44C]	0.829
GAGACCGCAACTGAAAAGTTGTTATCACTTGTCGTAAGATACTGTGGATGGGTTGAAGTTCTGCACGTAGAAGCAAAAGGC [C40T T44G]	0.825
GAGACCGCAACTGAAAAGTTGTTATCACTTGTCGTAAGATACTTTGGATGGGTTGAGGTTCTGCACGTAGAAGCAAAAGGC [C40T A57G]	0.839
GAGACCGCAACTGAAAAGTTGTTATCACTTGTCGTAAGATACTTTGGATGGGTTGACGTTCTGCACGTAGAAGCAAAAGGC [C40T A57C]	0.823
GAGACCGCAACTGAAAAGTTGTTATCACTTGTCGTAAGATACTTTGGATGGGTTGATGTTCTGCACGTAGAAGCAAAAGGC [C40T A57T]	0.798
GAGACCGCAACTGAAAAGTTGTTATCACTTGTCGTAAGATAATTTGGATGGGTTGAAGTTCTGCACGTAGAAGCAAAAGGC [C40T C42A]	0.845
GAGACCGCAACTGAAAAGTTGTTATCACTTGTCGTAAGATAGTTTGGATGGGTTGAAGTTCTGCACGTAGAAGCAAAAGGC [C40T C42G]	0.857
GAGACCGCAACTGAAAAGTTGTTATCACTTGTCGTAAGATATTTTGGATGGGTTGAAGTTCTGCACGTAGAAGCAAAAGGC [C40T C42T]	0.853
GAGACCGCAACTGAAAAGTTGTTATCACTTGTCGTAAGAGACTGTGGATGGGTTGAAGTTCTGCACGTAGAAGCAAAAGGC [C40G T44G]	0.807
GAGACCGCAACTGAAAAGTTGTTATCACTTGTCGTAAGAGACTCTGGATGGGTTGAAGTTCTGCACGTAGAAGCAAAAGGC [C40G T44C]	0.775
GAGACCGCAACTGAAAAGTTGTTATCACTTGTCGTAAGAGACTATGGATGGGTTGAAGTTCTGCACGTAGAAGCAAAAGGC [C40G T44A]	0.841
GAGACCGCAACTGAAAAGTTGTTATCACTTGTCGTAAGAGACTTTGGAGGGGTTGAAGTTCTGCACGTAGAAGCAAAAGGC [C40G T49G]	0.763
GAGACCGCAACTGAAAAGTTGTTATCACTTGTCGTAAGAGACTTTGGACGGGTTGAAGTTCTGCACGTAGAAGCAAAAGGC [C40G T49C]	0.365
GAGACCGCAACTGAAAAGTTGTTATCACTTGTCGTAAGAGACTTTGGAAGGGTTGAAGTTCTGCACGTAGAAGCAAAAGGC [C40G T49A]	0.683
GAGACCGCAACTGAAAAGTTGTTATCACTTGTCGTAAGATACTTTGAATGGGTTGAAGTTCTGCACGTAGAAGCAAAAGGC [C40T G47A]	0.798

Variant	fraction ligated
GAGACCGCAACTGAAAAGTTGTTATCACTTGTCGTAAGATACTTTGTATGGGTTGAAGTTCTGCACGTAGAAGCAAAAGGC [C40T G47T]	0.197
GAGACCGCAACTGAAAAGTTGTTATCACTTGTCGTAAGATACTTTGCATGGGTTGAAGTTCTGCACGTAGAAGCAAAAGGC [C40T G47C]	0.163
GAGACCGCAACTGAAAAGTTGTTATCACTTGTCGTAAGATACTTTGGATGGGTTGGAGTTCTGCACGTAGAAGCAAAAGGC [C40T A56G]	0.801
GAGACCGCAACTGAAAAGTTGTTATCACTTGTCGTAAGATACTTTGGATGGGTTGTAGTTCTGCACGTAGAAGCAAAAGGC [C40T A56T]	0.799
GAGACCGCAACTGAAAAGTTGTTATCACTTGTCGTAAGATACTTTGGATGGGTTGCAGTTCTGCACGTAGAAGCAAAAGGC [C40T A56C]	0.773
GAGACCGCAACTGAAAAGTTGTTATCACTTGTCGTAAGATACTTGGGATGGGTTGAAGTTCTGCACGTAGAAGCAAAAGGC [C40T T45G]	0.195
GAGACCGCAACTGAAAAGTTGTTATCACTTGTCGTAAGATACTTAGGATGGGTTGAAGTTCTGCACGTAGAAGCAAAAGGC [C40T T45A]	0.791
GAGACCGCAACTGAAAAGTTGTTATCACTTGTCGTAAGATACTTCGGATGGGTTGAAGTTCTGCACGTAGAAGCAAAAGGC [C40T T45C]	0.77
GAGACCGCAACTGAAAAGTTGTTATCACTTGTCGTAAGATACTTTGGATGGGTTCAAGTTCTGCACGTAGAAGCAAAAGGC [C40T G55C]	0.782
GAGACCGCAACTGAAAAGTTGTTATCACTTGTCGTAAGATACTTTGGATGGGTTTAAGTTCTGCACGTAGAAGCAAAAGGC [C40T G55T]	0.816
GAGACCGCAACTGAAAAGTTGTTATCACTTGTCGTAAGATACTTTGGATGGGTTAAAGTTCTGCACGTAGAAGCAAAAGGC [C40T G55A]	0.841
GAGACCGCAACTGAAAAGTTGTTATCACTTGTCGTAAGAGACTTTAGATGGGTTGAAGTTCTGCACGTAGAAGCAAAAGGC [C40G G46A]	0.825
GAGACCGCAACTGAAAAGTTGTTATCACTTGTCGTAAGAGACTTTCGATGGGTTGAAGTTCTGCACGTAGAAGCAAAAGGC [C40G G46C]	0.801
GAGACCGCAACTGAAAAGTTGTTATCACTTGTCGTAAGAGACTTTTGATGGGTTGAAGTTCTGCACGTAGAAGCAAAAGGC [C40G G46T]	0.793
GAGACCGCAACTGAAAAGTTGTTATCACTTGTCGTAAGAGACTTTGGATGGGTTTAAGTTCTGCACGTAGAAGCAAAAGGC [C40G G55T]	0.794
GAGACCGCAACTGAAAAGTTGTTATCACTTGTCGTAAGAGACTTTGGATGGGTTAAAGTTCTGCACGTAGAAGCAAAAGGC [C40G G55A]	0.808
GAGACCGCAACTGAAAAGTTGTTATCACTTGTCGTAAGAGACTTTGGATGGGTTCAAGTTCTGCACGTAGAAGCAAAAGGC [C40G G55C]	0.659
GAGACCGCAACTGAAAAGTTGTTATCACTTGTCGTAAGAGACTTTGGATGGGTTGACGTTCTGCACGTAGAAGCAAAAGGC [C40G A57C]	0.788
GAGACCGCAACTGAAAAGTTGTTATCACTTGTCGTAAGAGACTTTGGATGGGTTGATGTTCTGCACGTAGAAGCAAAAGGC [C40G A57T]	0.79
GAGACCGCAACTGAAAAGTTGTTATCACTTGTCGTAAGAGACTTTGGATGGGTTGAGGTTCTGCACGTAGAAGCAAAAGGC [C40G A57G]	0.8
GAGACCGCAACTGAAAAGTTGTTATCACTTGTCGTAAGATACTTTGGATCGGTTGAAGTTCTGCACGTAGAAGCAAAAGGC [C40T G50C]	0.357
GAGACCGCAACTGAAAAGTTGTTATCACTTGTCGTAAGATACTTTGGATTGGTTGAAGTTCTGCACGTAGAAGCAAAAGGC [C40T G50T]	0.784
GAGACCGCAACTGAAAAGTTGTTATCACTTGTCGTAAGATACTTTGGATAGGTTGAAGTTCTGCACGTAGAAGCAAAAGGC [C40T G50A]	0.567

Variant	fraction ligated
GAGACCGCAACTGAAAAGTTGTTATCACTTGTCGTAAGATCCTTTGGATGGGTTGAAGTTCTGCACGTAGAAGCAAAAGGC [C40T A41C]	0.78
GAGACCGCAACTGAAAAGTTGTTATCACTTGTCGTAAGATTCTTTGGATGGGTTGAAGTTCTGCACGTAGAAGCAAAAGGC [C40T A41T]	0.822
GAGACCGCAACTGAAAAGTTGTTATCACTTGTCGTAAGATGCTTTGGATGGGTTGAAGTTCTGCACGTAGAAGCAAAAGGC [C40T A41G]	0.765
GAGACCGCAACTGAAAAGTTGTTATCACTTGTCGTAAGAGACTTTGAATGGGTTGAAGTTCTGCACGTAGAAGCAAAAGGC [C40G G47A]	0.783
GAGACCGCAACTGAAAAGTTGTTATCACTTGTCGTAAGAGACTTTGTATGGGTTGAAGTTCTGCACGTAGAAGCAAAAGGC [C40G G47T]	0.438
GAGACCGCAACTGAAAAGTTGTTATCACTTGTCGTAAGAGACTTTGCATGGGTTGAAGTTCTGCACGTAGAAGCAAAAGGC [C40G G47C]	0.147
GAGACCGCAACTGAAAAGTTGTTATCACTTGTCGTAAGAGACGTTGGATGGGTTGAAGTTCTGCACGTAGAAGCAAAAGGC [C40G T43G]	0.819
GAGACCGCAACTGAAAAGTTGTTATCACTTGTCGTAAGAGACCTTGGATGGGTTGAAGTTCTGCACGTAGAAGCAAAAGGC [C40G T43C]	0.811
GAGACCGCAACTGAAAAGTTGTTATCACTTGTCGTAAGAGACATTGGATGGGTTGAAGTTCTGCACGTAGAAGCAAAAGGC [C40G T43A]	0.817
GAGACCGCAACTGAAAAGTTGTTATCACTTGTCGTAAGATACTTTGGGTGGGTTGAAGTTCTGCACGTAGAAGCAAAAGGC [C40T A48G]	0.784
GAGACCGCAACTGAAAAGTTGTTATCACTTGTCGTAAGATACTTTGGCTGGGTTGAAGTTCTGCACGTAGAAGCAAAAGGC [C40T A48C]	0.763
GAGACCGCAACTGAAAAGTTGTTATCACTTGTCGTAAGATACTTTGGTTGGGTTGAAGTTCTGCACGTAGAAGCAAAAGGC [C40T A48T]	0.798
GAGACCGCAACTGAAAAGTTGTTATCACTTGTCGTAAGATACTTTGGAAGGGTTGAAGTTCTGCACGTAGAAGCAAAAGGC [C40T T49A]	0.792
GAGACCGCAACTGAAAAGTTGTTATCACTTGTCGTAAGATACTTTTGATGGGTTGAAGTTCTGCACGTAGAAGCAAAAGGC [C40T G46T]	0.792
GAGACCGCAACTGAAAAGTTGTTATCACTTGTCGTAAGATACTTTAGATGGGTTGAAGTTCTGCACGTAGAAGCAAAAGGC [C40T G46A]	0.809
GAGACCGCAACTGAAAAGTTGTTATCACTTGTCGTAAGATACTTTCGATGGGTTGAAGTTCTGCACGTAGAAGCAAAAGGC [C40T G46C]	0.79
GAGACCGCAACTGAAAAGTTGTTATCACTTGTCGTAAGAGACTTAGGATGGGTTGAAGTTCTGCACGTAGAAGCAAAAGGC [C40G T45A]	0.688
GAGACCGCAACTGAAAAGTTGTTATCACTTGTCGTAAGAGACTTCGGATGGGTTGAAGTTCTGCACGTAGAAGCAAAAGGC [C40G T45C]	0.669
GAGACCGCAACTGAAAAGTTGTTATCACTTGTCGTAAGAGACTTGGGATGGGTTGAAGTTCTGCACGTAGAAGCAAAAGGC [C40G T45G]	0.0145
GAGACCGCAACTGAAAAGTTGTTATCACTTGTCGTAAGAGACTTTGGATTGGTTGAAGTTCTGCACGTAGAAGCAAAAGGC [C40G G50T]	0.548
GAGACCGCAACTGAAAAGTTGTTATCACTTGTCGTAAGAGACTTTGGATCGGTTGAAGTTCTGCACGTAGAAGCAAAAGGC [C40G G50C]	0.134
GAGACCGCAACTGAAAAGTTGTTATCACTTGTCGTAAGAGACTTTGGATAGGTTGAAGTTCTGCACGTAGAAGCAAAAGGC [C40G G50A]	0.262
